According to PMC9237128, “Molecular insights into intra-complex signal transmission during stressosome activation” (Communications Biology, 2022):

B1: Listeria innocua RsbR (LiRsbR) (natural protein)
chain: MYKDFANFIRTNKKDLLNNWMNEMEKQSDPLINDIAKEPMYEETSIEFVDLIVSNITENGSKFNEKLDDFAEKVVHLGWPIHFVTTGLRVFGLLVYTAMRDEDLFLKREEKPEDDAYYRFETWLSSMYNKVVTAYADTWEKTVSIQKSALQELSAPLLPIFEKISVMPLIGTIDTERAKLIIENLLIGVVKNRSEVVLIDITGVPVVDTMVAHHIIQASEAVRLVGCQAMLVGIRPEIAQTIVNLGIELDQIITTNTMKKGMERALALTNREIVEKEG
modifications: phosphothreonine at 241 (by ESI-MS-MS and cryo-EM density; seen only in RsbR protomers interacting with RsbS); Thr175 and Thr209 not phosphorylated
notes: RsbR of Listeria innocua, gene CAC96120.1; N-terminal sensory domain, linker helix and C-terminal STAS domain; also called RsbR1; source: E. coli BL21 Star (DE3), co-expressed with LiRsbS from pET11a, co-purified (DEAE, Resource Q, Superose 6 Increase SEC)
B2: Listeria innocua RsbS (LiRsbS) (natural protein)
chain: MGIPILKLGECLLISIQSELDDHTAVEFQEDLLAKIHETSARGVVIDITSIDFIDSFIAKILGDVVSMSKLMGAKVVVTGIQPAVAITLIELGITFSGVLSAMDLESGLEKLKQELGE
notes: RsbS of Listeria innocua, gene CAC96121.1; single STAS domain protein; Ser56 not phosphorylated in the structure; source: E. coli BL21 Star (DE3), co-expressed with LiRsbR from pET11a, co-purified (DEAE, Resource Q, Superose 6 Increase SEC)

Experiments:
[1] = target: B2; experiment: cryo-EM structure; co-expressed and co-purified LiRsbRS complex (monomeric form after SEC), 0.6 mg/mL; C1 map 4.2 Å, D2 map 3.87 Å, icosahedral map 3.45 Å; model built in the D2 map; details: both partners purified
[2] = target: the molecule itself; experiment: as above

B1 was tested, and the “stoichiometry N” value [1] was 2 LiRsbR per LiRsbS and the binding result [2] was “binds”.

B2: binds [2].
